The labels stand for the following.
B1: sdAb A3, anti-Staphylococcal Enterotoxin B single domain antibody (VHH)
VHH: EVQLVESGGGLVQAGDSLRLSCTASGRTFSRAVMGWFRQAPGKEREFVAAISAAPGTAYYAFYADSVRGRFSISADSAKNTVYLQMNSLKPEDTAVYYCAADLKMQVAAYMNQRSVDYWGQGTQVTVSS
notes: also called wild type sdAb A3
B2: sdAb A3 Construct 2 (A50C A108C) (VHH)
VHH: EVQLVESGGGLVQAGDSLRLSCTASGRTFSRAVMGWFRQAPGKEREFVACISAAPGTAYYAFYADSVRGRFSISADSAKNTVYLQMNSLKPEDTAVYYCAADLKMQVCAYMNQRSVDYWGQGTQVTVSS
notes: Keeps C22/C99
B3: sdAb A3 Construct 4 (Q3C Y118C) (VHH)
VHH: EVCLVESGGGLVQAGDSLRLSCTASGRTFSRAVMGWFRQAPGKEREFVAAISAAPGTAYYAFYADSVRGRFSISADSAKNTVYLQMNSLKPEDTAVYYCAADLKMQVAAYMNQRSVDCWGQGTQVTVSS
notes: Keeps C22/C99
B4: sdAb A3 Construct 1 (A49C I73C) (VHH)
VHH: EVQLVESGGGLVQAGDSLRLSCTASGRTFSRAVMGWFRQAPGKEREFVCAISAAPGTAYYAFYADSVRGRFSCSADSAKNTVYLQMNSLKPEDTAVYYCAADLKMQVAAYMNQRSVDYWGQGTQVTVSS
notes: Keeps C22/C99
B5: sdAb A3 Construct 3 (V33C M105C) (VHH)
VHH: EVQLVESGGGLVQAGDSLRLSCTASGRTFSRACMGWFRQAPGKEREFVAAISAAPGTAYYAFYADSVRGRFSISADSAKNTVYLQMNSLKPEDTAVYYCAADLKCQVAAYMNQRSVDYWGQGTQVTVSS
notes: Keeps C22/C99

Results on five molecules are retold here after paper PMC4272287 (PLoS ONE, 2014).

The target of the assay is T1, Staphylococcal enterotoxin B (Staphylococcus aureus, strain , UniProt P01552).
T1 construct: source: bought: Toxin technologies
T1 sequence (P01552 28-266): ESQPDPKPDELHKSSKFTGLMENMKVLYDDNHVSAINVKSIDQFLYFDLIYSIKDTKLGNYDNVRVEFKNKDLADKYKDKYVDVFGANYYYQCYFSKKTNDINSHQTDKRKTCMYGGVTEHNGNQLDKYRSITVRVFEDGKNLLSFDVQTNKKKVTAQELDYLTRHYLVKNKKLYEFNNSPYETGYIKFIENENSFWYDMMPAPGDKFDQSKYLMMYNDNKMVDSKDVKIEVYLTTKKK
Kind of assay: SPR. Particulars: both partners purified.
Take B1: the dissociation constant (Kd) (in general, the free concentration of one partner at which half of the binding sites on the other are occupied at equilibrium, for simple one-to-one binding) stood at 0.23 nM. B2 displayed a Kd of 0.06 nM.

For the molecule B3, binding was characterised by a dissociation constant (Kd) of 0.06 nM. For B4 the value was 0.66 nM; for B5, 0.21 nM.
